Measured values taken from paper PMC8060278 (Nature Communications, 2021).
One block for each molecule: values may come before it.

How the values were obtained:
[1] = biological target: GPIbα LBD (Homo sapiens) (UniProt P07359); conditions: cited from earlier work
[2] = biological target: T1, purified VWF (Homo sapiens, UniProt P04275); experiment: ELISA; VWF coated on plates (6 μg/mL in PBS); VHH81 detected with HRP-conjugated anti-VHH antibody; conditions: both partners purified
T1 construct: von Willebrand factor

[3] = biological target: T2, plasma-derived VWF (Homo sapiens, UniProt P04275); experiment: as above; conditions: both partners purified
T2 construct: von Willebrand factor from plasma (multimeric); In the flow-chamber functional row the VWF is that of human whole blood; also called plasma VWF; Humate-P; source: reconstituted in PBS from outdated lyophilized Humate-P (CSL-Behring)

Sequence of GPIbα LBD (Homo sapiens) (P07359 17-306): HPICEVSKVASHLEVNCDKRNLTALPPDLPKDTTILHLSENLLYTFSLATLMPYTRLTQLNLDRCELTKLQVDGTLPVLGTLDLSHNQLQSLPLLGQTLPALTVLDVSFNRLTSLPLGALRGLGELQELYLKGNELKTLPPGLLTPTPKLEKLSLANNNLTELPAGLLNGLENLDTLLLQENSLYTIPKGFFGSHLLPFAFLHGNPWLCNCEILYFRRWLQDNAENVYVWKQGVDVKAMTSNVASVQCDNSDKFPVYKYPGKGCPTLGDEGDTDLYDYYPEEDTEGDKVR

Molecule: von Willebrand factor AIM-A1 1238-1471 (from UniProt P04275)
Kd [1]: 32000 nM

Kd [2]: ~20 nM | Kd [3]: ~20 nM
B1: monomeric recombinant VHH81 (construct not stated for this experiment) (VHH)
VHH: EVQLVESGGGLVQPGGSLRLSCAASGRTFSYNPMGWFRQAPGKGRELVAAISRTGGSTYYPDSVEGRFTISRDNAKRMVYLQMNSLRAEDTAVYYCAAAGVRAEDGRVRTLPSEYTFWGQGTQVTVSS
notes: also called PMP12A2h1; source: produced in bacteria
